Results: patent publication US20200071406A1 (AGENCY FOR SCIENCE TECHNOLOGY AND RESEARCH, published 2020)

Target: T1, soluble peptide MHC complex of p53125-134 and soluble HLA*A2402 (human)
T1 construct: Soluble complex used for phage selection, ELISA and SPR; also called p53-A24; p53-A24 monomers
Test: surface plasmon resonance

Kd: 364 nM
B1: P1C1_gl (antibody, V domains shown)
VH: QVQLQESGPGLVKPSQTLSLTCTVSGGSISSGGYYWSWIRQHPGKGLEWIGYIYYSGSTYYNPSLKSRVTISVDTSKNQFSLKLSSVTAADTAVYYCARENFGAFDHWGQGTLVTVSS
VL: QSVLTQPPSVSGAPGQRVTISCTGSSSNIGADYETHWYQQLPGTAPKLLIYGNTNRPSGVPDRFSGSKSGTSASLAITGLQAEDEADYYCQSYDSNLSAWVFGGGTKLTILS
notes: it induces ADCC, so it has an Fc; also called germline version of P1C1; original germline clone
